The values below come from publication PMC9453702, “Structure-function analysis of enterovirus protease 2A in complex with its essential host factor SETD3” (Nature Communications, 2022).

Where a chain is given by its changes, count along the chain named. In names and notes the source's numbering stands.

The target of assay [1] is actin (Homo sapiens) (UniProt P60709). The conditions noted are these: cited from earlier work.
Assay [2] has as its target 2xStrep-tagged catalytically dead CV-B3 2A, expressed in human cells. Kind of assay: FLAG affinity purification with label-free quantitative MS. The conditions noted are these: co-transfected CV-B3 2A; four biologically independent experiments; parent: est. 5.5e7; read off a plot.
Assay [3] addresses coxsackievirus B3 protease 2A with C-terminal His6-tag (for biolayer interferometry). Nature of the assay: biolayer interferometry. The note with it: parent: 0.0051 s-1.
The target of assay [4] is coxsackievirus B3 protease 2A with C-terminal His6-tag (for biolayer interferometry) (coxsackievirus B3 (Nancy strain)). Nature of the assay: BLI; Octet RED384; His-tagged 2A loaded on Ni-NTA biosensors at 20 µg/ml, SETD3 variants in solution at several concentrations; 20 mM Tris/HCl pH 8.0, 150 mM NaCl, 5% glycerol, 1 mM DTT; global fit with Rmax unlinked. In general terms: In BLI a coated tip is dipped into the sample, and binding shifts an interference pattern.

Assay [5] addresses coxsackievirus B3 (Nancy strain) protease 2A, C107A (recombinant, tag cleaved) (coxsackievirus B3 (Nancy strain)).
Assay [6] concerns the target T1, human SETD3, wild type (recombinant, tag cleaved) (human, UniProt Q86TU7 1-594).
T1 construct: SETD3, actin histidine methyltransferase, human; codon-optimised gene in vector 2G-T; also called WT SETD3; SETD3 WT; source: E. coli BL21*(DE3), purified (Glutathione Sepharose 4B, TEV digest, His-Trap FF flow-through; Superdex 200 Increase for BLI)
T1 sequence: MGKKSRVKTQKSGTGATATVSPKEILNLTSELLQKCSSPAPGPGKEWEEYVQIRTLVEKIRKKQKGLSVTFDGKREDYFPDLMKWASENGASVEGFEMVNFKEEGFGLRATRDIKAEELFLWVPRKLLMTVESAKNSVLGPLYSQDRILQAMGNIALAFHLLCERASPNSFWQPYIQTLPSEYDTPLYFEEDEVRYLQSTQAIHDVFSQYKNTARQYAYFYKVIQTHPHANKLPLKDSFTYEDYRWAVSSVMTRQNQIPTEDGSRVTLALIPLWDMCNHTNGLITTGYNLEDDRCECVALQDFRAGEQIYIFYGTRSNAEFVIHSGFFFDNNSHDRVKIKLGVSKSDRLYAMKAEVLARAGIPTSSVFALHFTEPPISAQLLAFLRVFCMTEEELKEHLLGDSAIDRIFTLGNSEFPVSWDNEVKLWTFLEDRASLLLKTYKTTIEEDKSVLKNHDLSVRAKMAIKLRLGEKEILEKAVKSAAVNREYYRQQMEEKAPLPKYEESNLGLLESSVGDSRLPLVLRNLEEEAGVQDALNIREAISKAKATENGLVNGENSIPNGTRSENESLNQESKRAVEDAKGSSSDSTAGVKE
Nature of the assay: BLI; competition: His-tagged 2A on Ni-NTA biosensors, 3-fold dilution series of actin peptide (40 nM to 10 µM) with SETD3 constant at 310 nM; 20 mM Tris/HCl pH 8.0, 150 mM NaCl, 5% glycerol, 1 mM DTT; maximum binding against peptide concentration. The conditions noted are these: both partners purified.

With SETD3 (from UniProt Q86TU7), the Kd in assay [1] is 170 nM. In the case of “FLAG-tagged SETD3, wild type, expressed in human cells (from UniProt Q86TU7) Q257A; V266D; Y288P”, the response in assay [2] came to 900000.

As to “human SETD3, wild type (recombinant, tag cleaved) (from UniProt Q86TU7) Y288P”, in assay [3], the off-rate constant (koff) came to 0.32 s⁻¹. For “FLAG-tagged SETD3, wild type, expressed in human cells (from UniProt Q86TU7) Q257A; V266D”, the response in assay [2] was 1.7e+06. With “human SETD3, wild type (recombinant, tag cleaved) (from UniProt Q86TU7) Q257A; V266D”, the koff in assay [3] is 0.45 s⁻¹. Consider “human SETD3, wild type (recombinant, tag cleaved) (from UniProt Q86TU7) G361R; F409A”, for which the koff in assay [3] was 0.0131 s⁻¹. As for “FLAG-tagged SETD3, wild type, expressed in human cells (from UniProt Q86TU7) Q257A; V266D; Y288P; G361R”, the response in assay [2] was determined as 450000. Regarding “human SETD3, wild type (recombinant, tag cleaved) (from UniProt Q86TU7) G361R”, the koff in assay [3] was found to be 0.0116 s⁻¹.

B1: human SETD3, wild type (recombinant, tag cleaved) (enzyme)
chain: T1 sequence
For B1, in assay [4], the Kd was found to be 47 nM. Also, in assay [5], the 2A protease activity towards a FRET peptide of the VP1-2A cis-cleavage site; catalytically active WT 2A alone against its complex with WT SETD3 turned out to be 1.5 fold and the kcat/Km of catalytically active WT 2A in complex with WT SETD3 towards a FRET peptide of the VP1-2A cis-cleavage site (1.5 mM^-1 min^-1 for 2A alone) is 38 M⁻¹ s⁻¹.

B2: human SETD3 G361R + F409A (recombinant, tag cleaved) (enzyme)
chain: T1 sequence with G361R, F409A
Molecule B2 returned a dissociation constant (Kd) in assay [4] of 132 nM.

B3: human SETD3 Y288P (recombinant, tag cleaved) (enzyme)
chain: T1 sequence with Y288P
In turn, B3 showed a dissociation constant (Kd) in assay [4] of 2500 nM.

B4: human SETD3 G361R (recombinant, tag cleaved) (enzyme)
chain: T1 sequence with G361R
In assay [4], B4 came in with a Kd of 110 nM.

B5: human SETD3 Q257A + V266D (recombinant, tag cleaved) (enzyme)
chain: T1 sequence with Q257A, V266D
Molecule B5 had an equilibrium dissociation constant (Kd) in assay [4] of 10000 nM.

B6: synthetic actin peptide, residues 66-81, H73L (peptide)
peptide: TLKYPIELGIVTNWDD
notes: also called actin peptide 66-81 with His73 replaced by leucine; source: synthetic peptide
Take B6: in assay [6], the IC50 fell in the range of 1500 to 3400 nM.

The Kd is a measure of binding affinity in units of concentration. In general, koff refers to the first-order rate constant of dissociation. As a reminder, the IC50 is the concentration that inhibits the measured activity by half.
